Five molecules from US20180244758A1 (MAPP BIOPHARMACEUTICAL, published 2018) can be followed below.

The target in assay [1] is T1, EBOV GPCL on cleaved VSV-GP particles (Ebola virus (EBOV), UniProt Q05320 33-676).
T1 sequence: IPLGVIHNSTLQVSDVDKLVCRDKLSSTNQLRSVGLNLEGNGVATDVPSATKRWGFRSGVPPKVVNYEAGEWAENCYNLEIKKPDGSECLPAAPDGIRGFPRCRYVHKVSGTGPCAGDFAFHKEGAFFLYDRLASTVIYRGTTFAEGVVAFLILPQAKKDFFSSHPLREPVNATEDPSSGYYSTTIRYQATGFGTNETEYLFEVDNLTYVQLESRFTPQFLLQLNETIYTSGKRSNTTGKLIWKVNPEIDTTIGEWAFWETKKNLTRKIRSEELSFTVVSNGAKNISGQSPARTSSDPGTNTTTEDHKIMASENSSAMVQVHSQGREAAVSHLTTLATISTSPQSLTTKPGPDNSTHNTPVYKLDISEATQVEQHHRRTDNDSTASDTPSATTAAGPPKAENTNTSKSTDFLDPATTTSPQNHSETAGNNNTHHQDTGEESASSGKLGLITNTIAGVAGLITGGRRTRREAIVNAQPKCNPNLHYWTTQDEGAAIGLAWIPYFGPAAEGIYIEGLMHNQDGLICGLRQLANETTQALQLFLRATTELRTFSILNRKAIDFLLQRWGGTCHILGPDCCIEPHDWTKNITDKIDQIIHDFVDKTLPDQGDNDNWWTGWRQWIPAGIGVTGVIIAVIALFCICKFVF
The assay can be described thus: cell-based or functional assay.

The target of assay [2] is T2, EBOV GP on rVSV particles (Ebola virus (EBOV), UniProt Q05320 33-676).
T2 sequence: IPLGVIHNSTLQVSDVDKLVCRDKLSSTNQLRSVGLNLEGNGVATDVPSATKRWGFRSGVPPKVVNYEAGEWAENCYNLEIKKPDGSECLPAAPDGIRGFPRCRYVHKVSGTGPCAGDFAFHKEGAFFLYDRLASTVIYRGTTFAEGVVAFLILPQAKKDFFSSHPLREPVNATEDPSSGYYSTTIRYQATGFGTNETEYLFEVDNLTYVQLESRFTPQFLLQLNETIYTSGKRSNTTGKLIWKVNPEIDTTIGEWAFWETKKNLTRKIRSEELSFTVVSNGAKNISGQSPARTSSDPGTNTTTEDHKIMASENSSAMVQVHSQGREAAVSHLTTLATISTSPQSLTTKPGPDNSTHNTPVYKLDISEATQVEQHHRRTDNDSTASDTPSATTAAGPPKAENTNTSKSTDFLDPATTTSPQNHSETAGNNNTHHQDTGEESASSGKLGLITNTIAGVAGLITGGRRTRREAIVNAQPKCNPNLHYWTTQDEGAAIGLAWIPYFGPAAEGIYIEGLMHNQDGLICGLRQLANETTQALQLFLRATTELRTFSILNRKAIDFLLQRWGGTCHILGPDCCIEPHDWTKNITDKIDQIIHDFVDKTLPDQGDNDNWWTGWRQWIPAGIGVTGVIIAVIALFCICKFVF
The assay can be described thus: cell-based or functional assay.

In assay [3] the target is T3, SUDV GP on rVSV particles (Sudan virus (SUDV), UniProt Q66814 33-676).
T3 sequence: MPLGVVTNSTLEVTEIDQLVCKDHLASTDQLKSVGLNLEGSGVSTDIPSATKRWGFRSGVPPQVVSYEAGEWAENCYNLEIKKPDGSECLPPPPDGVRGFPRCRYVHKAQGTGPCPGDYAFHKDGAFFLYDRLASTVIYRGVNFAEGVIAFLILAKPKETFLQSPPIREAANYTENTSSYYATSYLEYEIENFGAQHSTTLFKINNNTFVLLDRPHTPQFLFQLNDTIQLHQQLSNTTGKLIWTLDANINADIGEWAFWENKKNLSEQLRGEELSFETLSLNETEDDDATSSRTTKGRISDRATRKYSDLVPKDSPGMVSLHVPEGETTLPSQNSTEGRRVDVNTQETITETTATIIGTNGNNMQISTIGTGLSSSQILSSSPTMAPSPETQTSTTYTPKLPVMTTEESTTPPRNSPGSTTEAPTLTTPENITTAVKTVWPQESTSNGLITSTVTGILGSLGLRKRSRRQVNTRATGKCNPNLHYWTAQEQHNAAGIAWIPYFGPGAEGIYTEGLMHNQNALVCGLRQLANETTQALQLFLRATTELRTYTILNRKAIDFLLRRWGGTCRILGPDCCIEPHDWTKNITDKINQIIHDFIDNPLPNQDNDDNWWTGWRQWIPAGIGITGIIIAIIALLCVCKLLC
The assay can be described thus: cell-based or functional assay.

A further assay deals with T4, EBOV GP (Ebola virus (EBOV), UniProt Q05320 33-637).
T4 sequence: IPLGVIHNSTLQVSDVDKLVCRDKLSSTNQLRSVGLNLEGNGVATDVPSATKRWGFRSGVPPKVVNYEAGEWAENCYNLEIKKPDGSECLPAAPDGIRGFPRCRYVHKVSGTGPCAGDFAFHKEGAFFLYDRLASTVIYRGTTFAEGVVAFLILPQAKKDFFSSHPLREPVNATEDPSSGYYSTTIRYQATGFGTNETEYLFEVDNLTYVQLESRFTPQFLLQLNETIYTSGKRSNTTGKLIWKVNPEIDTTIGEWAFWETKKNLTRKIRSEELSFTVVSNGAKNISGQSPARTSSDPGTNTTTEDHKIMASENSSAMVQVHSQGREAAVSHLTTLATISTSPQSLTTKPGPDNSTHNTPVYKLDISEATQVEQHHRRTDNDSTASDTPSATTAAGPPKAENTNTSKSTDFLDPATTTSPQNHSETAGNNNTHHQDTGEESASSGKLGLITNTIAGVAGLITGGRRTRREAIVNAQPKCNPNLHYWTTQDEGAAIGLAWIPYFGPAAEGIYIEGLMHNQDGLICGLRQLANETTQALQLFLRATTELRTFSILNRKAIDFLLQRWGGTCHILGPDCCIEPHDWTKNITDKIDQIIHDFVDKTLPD

Assay [4] concerns the target GP of authentic (wild-type) BDBV (Bundibugyo virus (BDBV)). In words: cell-based or functional assay.
Assay [5] concerns the target T5, GP of authentic (wild-type) SUDV (Sudan virus (SUDV), UniProt Q66814 33-676).
T5 sequence: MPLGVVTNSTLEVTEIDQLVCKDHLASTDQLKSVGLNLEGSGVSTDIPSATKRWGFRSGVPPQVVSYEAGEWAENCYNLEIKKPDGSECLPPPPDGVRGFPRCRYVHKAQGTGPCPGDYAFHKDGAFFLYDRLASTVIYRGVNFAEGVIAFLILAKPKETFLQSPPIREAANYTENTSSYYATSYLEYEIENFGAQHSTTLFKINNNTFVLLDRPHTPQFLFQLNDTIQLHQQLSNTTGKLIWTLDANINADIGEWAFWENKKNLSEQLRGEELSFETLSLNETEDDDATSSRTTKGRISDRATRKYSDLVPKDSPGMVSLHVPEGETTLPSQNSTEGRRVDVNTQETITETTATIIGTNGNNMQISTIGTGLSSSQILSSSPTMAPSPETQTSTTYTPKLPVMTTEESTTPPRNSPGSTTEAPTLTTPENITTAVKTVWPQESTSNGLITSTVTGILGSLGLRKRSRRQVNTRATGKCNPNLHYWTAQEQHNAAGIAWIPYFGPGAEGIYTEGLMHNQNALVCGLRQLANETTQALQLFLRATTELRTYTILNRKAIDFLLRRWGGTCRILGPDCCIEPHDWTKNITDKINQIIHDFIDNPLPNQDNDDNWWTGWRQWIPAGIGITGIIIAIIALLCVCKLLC
In words: cell-based or functional assay.

Assay [6] addresses T6, GP of authentic (wild-type) EBOV (Ebola virus (EBOV), UniProt P87666 33-676).
T6 sequence: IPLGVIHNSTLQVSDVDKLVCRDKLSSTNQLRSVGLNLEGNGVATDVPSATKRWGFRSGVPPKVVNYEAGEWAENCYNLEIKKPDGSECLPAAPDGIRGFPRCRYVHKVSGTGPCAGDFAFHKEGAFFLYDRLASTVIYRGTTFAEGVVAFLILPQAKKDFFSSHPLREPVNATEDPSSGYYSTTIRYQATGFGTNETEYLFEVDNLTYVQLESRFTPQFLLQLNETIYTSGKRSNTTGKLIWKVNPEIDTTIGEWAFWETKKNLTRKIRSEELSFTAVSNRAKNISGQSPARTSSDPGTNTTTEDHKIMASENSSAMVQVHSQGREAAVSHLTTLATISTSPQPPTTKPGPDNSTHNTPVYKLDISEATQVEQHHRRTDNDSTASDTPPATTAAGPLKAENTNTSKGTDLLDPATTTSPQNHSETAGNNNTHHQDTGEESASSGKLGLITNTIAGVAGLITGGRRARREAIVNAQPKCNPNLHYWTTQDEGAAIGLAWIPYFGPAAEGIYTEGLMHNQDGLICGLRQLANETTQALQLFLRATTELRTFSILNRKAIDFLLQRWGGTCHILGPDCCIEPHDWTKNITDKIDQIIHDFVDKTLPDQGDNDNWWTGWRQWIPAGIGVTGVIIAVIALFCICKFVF
In words: cell-based or functional assay.

A value given as a limit tells only on which side of the number the result lay.

B1: mAb PE-87 (antibody, V domains shown)
VH: QVQLVQSGVTLVQPGGSLRVSCAASGFTFSSYAMSWVRQAPGKGLEWVSAISGLGGSTYYADSVKGRFTISRDNSKNTLYLQMNSLRAEDTAVYYCAKDHRVWAAGYHFDYWGQGALVTVSS
VL: DIVLTQSPSTLSASVGDRVTITCRASQSISSWLAWYQQKPGEAPKLLISDASSLESGVPSRFSGSGSGTEFTLTISSLQPDDFATYYCQQYYSSPTFGGGTKVEIK
B1: the “Neutralization (VSV-GP IC50, nM)” value is 0.2 nM in assay [1], 0.5 nM in assay [2] and 0.3 nM in assay [3]. For the same molecule, the Kd (as a rule, the equilibrium constant for the complex coming apart) in the assay with EBOV GP is below 0.01 nM. The “Authentic virus neutralization IC50” value in assay [4] came to 0.6 nM; in assay [5], 0.2 nM; in assay [6] it was 0.2 nM.

B2: mAb PE-24 (antibody, V domains shown)
VH: EVQLVESGGGLVQPGGSLRLSCAASGFTFSSYAMSWVRQAPGKGLEWVSEISGLGGSTYYADSAKGRFTISRDNSKSTLYLQMNSLRAEDTAVYYCAKDHRVWAPGYYFDHWGQGTLVTVSS
VL: DIVLTQSPSTLSASVGDRVTITCRASQSISSWLAWYQQKPGKAPKLLIYDASSLESGVPSRFSGSGSGTEFTLTISSLQPDDFATYFCQQYNRSPTFGGGTKVEIK
Consider B2, for which the “Neutralization (VSV-GP IC50, nM)” value in assay [1] was 0.6 nM; in assay [2], 1.8 nM; in assay [3], 0.5 nM. The molecule further showed a Kd with EBOV GP of 1 nM. Moreover, the figures for the “Authentic virus neutralization IC50” value in assay [4], in assay [5] and in assay [6] were 0.6 nM, 0.2 nM and 0.7 nM, respectively.

B3: mAb PE-05 (antibody, V domains shown)
VH: QVQLQESGGGLVKPGRSLRLSCTASGFTFGDYAMSWFRQAPGKGLEWVGFLRSKAYGGTAEYAASVKGRFTMSRDDSKSIAYLQMNSLKTEDTAVYFCTRDGFRGSSWGYSYYGMDVWGQGTTVTVSS
VL: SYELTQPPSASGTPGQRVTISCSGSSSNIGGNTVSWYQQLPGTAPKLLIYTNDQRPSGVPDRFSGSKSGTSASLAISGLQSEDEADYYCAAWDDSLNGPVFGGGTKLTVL
As for B3, the “Neutralization (VSV-GP IC50, nM)” value in assay [2] was determined as 8.8 nM; in assay [3], 34 nM. Moreover, in the assay with EBOV GP, the dissociation constant Kd turned out to be 44 nM. Moreover, the “Authentic virus neutralization IC50” value in assay [6] was found to be 5.2 nM.

B4: mAb PE-47 (antibody, V domains shown)
VH: EVQLVESGGGLVKPGGSLRLSCAASGFTFSNAWMSWVRQAPGEGLEWVGRIKSKTDGGTIDYAAPVKGRFTISRDDSKNTVYLQMTSLKTEDTAVYYCTTYTEDMQYFDWLLRGGETFDYWGQGTLVTVSS
VL: DIQMTQSPSSLSASVGDRVTITCRASQYISTYLNWYQQKPGKAPKLLIYAAYNLQSGVPSRFSGSGSGTDFTLTISSLQPEDFATYYCQQSYSTPGRYTFGQGTKVEIK
For B4, the “Neutralization (VSV-GP IC50, nM)” value is 0.08 nM in assay [1], 6.6 nM in assay [2] and 5.1 nM in assay [3]. Also, binding in the assay with EBOV GP was put at a Kd of 3.5 nM.

B5: mAb PE-16 (antibody, V domains shown)
VH: QVQLVQSGAEVTKPGASVKVSCKASGYTFTTYYMHWVRQAPGQGLEWVGIINPSGGITRYAQKFQGRVTLTRDTSTTTVYMELSSLRSEDTAVYYCARDRYPVLFATDYGMDVWGQGTTVTVSS
VL: DIVMTQSPATLSLSPGERATLSCRASQSVSGYLAWYQQKPGQAPRLLIYDASNRATGIPARFSGSGSGTDFTLTISSLEPEDFAVYYCQQRSIWPPGVTFGGGTKVEIK
For B5, the “Neutralization (VSV-GP IC50, nM)” value in assay [1] was 5.7 nM; in assay [2] it was 0.2 nM. In the assay with EBOV GP, this molecule returned a Kd of 0.16 nM. The figures for the “Authentic virus neutralization IC50” value in assay [4], in assay [5] and in assay [6] were 0.3 nM, 300 nM and 0.1 nM, respectively.
